According to US7993849B2:

What was measured:
rat MMP-13 (rat) = rat MMP-13 (rat) (UniProt P23097)
human MMP-1 (human) = human MMP-1 (human) (UniProt P03956)

Sequence of rat TIMP-1 (P30120 24-217 limits assumed): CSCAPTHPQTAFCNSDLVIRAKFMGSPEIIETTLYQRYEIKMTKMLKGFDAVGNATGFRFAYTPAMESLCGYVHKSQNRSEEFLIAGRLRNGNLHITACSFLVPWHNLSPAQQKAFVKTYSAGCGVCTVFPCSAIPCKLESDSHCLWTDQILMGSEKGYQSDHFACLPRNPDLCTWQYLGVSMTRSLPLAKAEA

An MMP-13 activity on fluorogenic peptide substrate (% MMP-13 activity) (rat MMP-13 (rat)) of 20 was found for rat TIMP-1 in this work.

An MMP-1 activity on fluorogenic peptide substrate (% MMP-1 activity) (human MMP-1 (human)) of 27 was found for human TIMP-1 in this work.
